Laboratory results from publication PMC6517402 (Scientific Reports, 2019).

Biological target: the molecule itself
Test: crystal structure; X-ray, 1.85 Å, SAD phasing with SeMet protein, then molecular replacement into the wild-type crystal; three molecules in the asymmetric unit

B1: ORF212 tailspike protein (TSP3) of E. coli O157:H7 phage CBA120 (enzyme, UniProt G3M191 1-627, looked up)
chain: MISQFNQPRGSTSIEVNKQSIARNFGVKEDEVIYFTAGIDLSGFKVIYDESTQRAYSLPFGIVSGTTAISLDERAILTHSAGSVDLGELAVSREEYVTLPGSFNFGHTINVKNELLVHDDKKYRWDGSLPKVVAAGSTPDSSGGVGLGAWLSVGDAALRAELNTKVSDGTFPATIKYKYGLPSVIDGAIYRTVQDKLDDFVFLEDFGGKDDAGSTDNSIAFRKAFASGARKIRLRGSGVYGMATRDIELPAKYEIIGNAKNPEIKYLGTDTSFTMFTLTGSGPASNQWKQGGMFRDLIISSDVKINWMLGRHVQNLDYDRVFFYNSATVLNNYHYVNFTRCERWGSAFIGRADLNTIQFISESPKFHLCFSSGSPIDVWDTADLAITKCTMFAGDYAVRTRVTQKQVTAPDLFAGYPVLITCSVFDAVRGHAWDLEGSVYSTITGNLVSAGRDTNSHGAYIKGGRSLSLTGNVFTYCGNYGLVLEDVQQSGFVGNVFNGNKTGGLGTLACKDLSIVGGSMGTTYVRGGYYTQPVGYSDISSNSTGILLSGVAFDEALTTKVYLDTSITTRNKVINCSGVPDTIARGSTANRPANPQASYQYYDTTLGIPIWWNSVSGTWKNAAGADV
notes: also called CBA120 TSP3; wild-type TSP3
Question: How did the “stoichiometry N” value turn out when B1 was run?
Answer: 3
